Reference: US20200223938A1 (published 2020)
Changes are numbered by the printed parent chain.

B1: EFc88 (protein)
chain: DKTHTCPPCSAPELLGGPSVFLFPPKPKDTLMISRTPEVTCVVVDVSHEDPEVKFNWYVDGVEVHNAKTKPREELYNSTYRVVSVLTVLHQDWLNGKEYMCKVSNKALPAPIEKTISKAKGQPREPQVYTLPPSREELTKNQVSLTCLVKGFYPSDIAVEWESNGQPENNYKTTPPVLDSDGSFILYSKLTVDKSRWQQGNVFSCSVLHEALHNHYTQKSLSLSPGK
B2: trastuzumab Fc variant EFc82 (antibody)
Fc: B1 chain with S10Q, F23Y, K26E, L75Q, M100K, E136D, N141S, N164I, I185F

Target: monomeric FcRn (Sinobiological inc., CT009-H08H) (human;, UniProt P55899 24-297; P61769 21-119)
Sequence (P55899 24-297, chain 1 of 2): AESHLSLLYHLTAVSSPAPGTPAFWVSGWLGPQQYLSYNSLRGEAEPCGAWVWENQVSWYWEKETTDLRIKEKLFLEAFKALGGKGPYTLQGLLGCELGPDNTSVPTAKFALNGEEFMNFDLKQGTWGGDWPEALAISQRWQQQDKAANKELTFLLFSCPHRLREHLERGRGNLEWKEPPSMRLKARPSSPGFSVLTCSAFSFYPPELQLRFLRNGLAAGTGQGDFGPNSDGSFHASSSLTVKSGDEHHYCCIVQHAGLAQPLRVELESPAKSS
Sequence (P61769 21-119, chain 2 of 2): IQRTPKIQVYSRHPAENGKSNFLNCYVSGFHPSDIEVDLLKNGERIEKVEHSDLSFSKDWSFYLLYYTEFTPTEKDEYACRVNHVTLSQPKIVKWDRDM
Assay: Biacore SPR; pH 6.0

Binder	Kd
B1	6.99 nM
B2	6.68 nM
